The target in one data set is T1, Mucorales CotH2 (Rhizopus delemar, UniProt I1C4E4).
T1 sequence (I1C4E4 whole entry, looked up): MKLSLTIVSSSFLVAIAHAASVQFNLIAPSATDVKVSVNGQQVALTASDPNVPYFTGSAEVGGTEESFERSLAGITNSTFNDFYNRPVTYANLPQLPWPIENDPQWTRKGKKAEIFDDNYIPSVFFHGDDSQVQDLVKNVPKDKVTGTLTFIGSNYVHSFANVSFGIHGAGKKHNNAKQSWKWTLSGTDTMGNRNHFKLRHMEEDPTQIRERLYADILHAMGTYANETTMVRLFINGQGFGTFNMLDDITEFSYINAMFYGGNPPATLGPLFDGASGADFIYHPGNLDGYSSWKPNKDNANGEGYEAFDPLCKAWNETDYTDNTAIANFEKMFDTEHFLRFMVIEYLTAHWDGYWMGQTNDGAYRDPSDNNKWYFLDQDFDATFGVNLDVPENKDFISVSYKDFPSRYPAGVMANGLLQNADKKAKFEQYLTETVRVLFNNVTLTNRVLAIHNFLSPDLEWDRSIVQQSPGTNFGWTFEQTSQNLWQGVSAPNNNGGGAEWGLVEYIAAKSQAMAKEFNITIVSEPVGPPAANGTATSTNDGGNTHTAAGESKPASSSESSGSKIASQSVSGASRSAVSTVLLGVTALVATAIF

For another data set, the target named is Mucorales CotH3 (Rhizopus delemar, UniProt I1CFE1).
For data set [1] the following is noted: intravenous, single dose 10 μg, 30 μg or 100 μg, 1-168 hours.
Experimental: Pharmacokinetics study: Neutropenic mice were infected intratracheally with 25 μl of PBS containing 2.5×10^5 spores of Rhizopus delemear. […] After infection, mice were treated daily with 5 mg in 0.2 ml of irrigation water with ceftazidime subcutaneously to prevent bacterial superinfection. […] Mouse serum samples were collected at the time points: 1 hour, 2 hours, 4 hours, 8 hours, 24 hours, 72 hours, 120 hours, and 168 hours after the antibody injection. The antibody concentration in the mouse serum samples was detected by ELISA, with Flag-CotH3 as the coating protein, and anti-human-IgG-HRP as the secondary antibody.
The test system of another data set is R. delemar 99-880. Kind of data set: Neutropenic mouse model of mucormycosis, R. delemar 99-880 infection. Type of data set: in vivo, Rhizopus delemar. The note with it: single dose of 30 μg 24 h after infection, lungs harvested day 4. How it is done: Mouse models: Neutropenic mice model used male ICR mice (20 to 23 g) obtained from Envigo (NJ). Mice were injected with cyclophosphamide (200 mg/kg, given intraperitoneally) and cortisone acetate (500 mg/kg, given subcutaneously) on days −2, +3, and +8 relative to infection^(1).
Antibody treatment with a single dose of 30 μg humanized antibody, or isotype human IgG started 24 or 48 hours after infection and was administered by intraperitoneal injection. Time to moribundity (equated with survival) served as the primary endpoint. As a secondary endpoint and in some experiments, fungal burden in the lungs and brains (primary and secondary target organs) was determined 96 hours after infection by quantitative PCR assay, as we previously described^(3). Values were expressed as log10 spore equivalent per gram of tissue. Histopathological examination was carried out on sections of the harvested organs after fixing in 10% zinc formalin. The fixed organs were embedded in paraffin, and […] sections were stained with hematoxylin and eosin.

Another data set has as its target CotH3 antigen (Rhizopus delemar, UniProt I1CFE1). The note with it: Protein G sensor, CotH3 6.25-400 nM, 25° C. On the procedure:
The purified preparations were then used to assess the affinity of each clone for the CotH3 antigen by biolayer interferometry using Gator system (ProbeLife). Under the assumption that the CotH3 antigen provided by Vitalex behaves as a normal soluble monomeric protein, a Protein G coated sensor probe (ProbeLife, catalog #160006) was loaded with the bivalent antibody test clone at a concentration of 5 μg/ml in ProbeLife's kinetic buffer (PBS pH 7.4, 0.02% BSA, 0.002% Tween-20, 0.005% NaN3). A serial dilution of CotH3 antigen of 400, 200, 100, 50, 25, 12.5, 6.25 nM and buffer only (0 nM) was added to the sensors. All reactions were performed at 25° C. The values are chosen when three or more concentrations yield the same kinetic values. The original murine mAb was provided by Vitalex as the reference.

CotH3 antigen, sequence (I1CFE1 18-601): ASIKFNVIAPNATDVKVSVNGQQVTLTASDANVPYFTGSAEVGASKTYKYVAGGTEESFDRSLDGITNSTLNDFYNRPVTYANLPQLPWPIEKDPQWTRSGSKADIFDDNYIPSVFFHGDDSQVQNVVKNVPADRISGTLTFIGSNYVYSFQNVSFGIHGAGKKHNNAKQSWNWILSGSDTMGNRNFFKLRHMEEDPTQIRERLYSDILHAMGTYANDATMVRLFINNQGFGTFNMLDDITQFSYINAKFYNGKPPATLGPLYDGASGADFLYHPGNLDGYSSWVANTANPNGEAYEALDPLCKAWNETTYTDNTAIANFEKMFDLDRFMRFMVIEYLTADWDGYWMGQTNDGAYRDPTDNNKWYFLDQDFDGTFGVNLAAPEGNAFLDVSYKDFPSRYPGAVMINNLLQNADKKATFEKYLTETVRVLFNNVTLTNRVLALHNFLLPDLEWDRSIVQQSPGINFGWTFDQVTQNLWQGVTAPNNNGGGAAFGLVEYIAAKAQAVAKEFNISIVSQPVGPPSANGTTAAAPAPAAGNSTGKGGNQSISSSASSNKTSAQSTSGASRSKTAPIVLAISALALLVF
Mucorales CotH3, sequence (I1CFE1 18-601): as above

B1: mAb: mouse monoclonal IgG1 kappa anti-CotH3 antibody, clone C2, raised against peptide SEQ ID NO:34 (antibody, V domains shown)
VH: DLQLQESGPSLVKPSQTLSLTCSVTGDSITSGYWNWIRKFPGNKLEHMGYIKYSGRTFYNPSLKSRVSITRDTSKNQYYLQLNSVTSEDTATYYCASRGYWGQGTTLTVSS
VL: DVVMTQTPLSLSVTIGQPASISCKSSQSLLYSNGKTYLNWLQQRPGQAPKLLMFQVSKPGIPDRFSGSGSETDFTLKISRVEAEDLGVYYCLQGTYFPHTFGAGTKVEIK
Take B1: in the data set with Mucorales CotH2, the “specific binding to CotH2” value is recorded as “bound specifically”. Moreover, the “specific binding to CotH3” value with Mucorales CotH3 is reported as “bound specifically”. Further, the “pharmacokinetics (serum antibody concentration)” value in data set [1] is reported as “Dose dependent pharmacokinetics”. In the data set on R. delemar 99-880, the lung histology entry was “no fungal elements and normal lung architecture”. In addition, in the data set with CotH3 antigen, the “Koff (S^−1)” value is recorded as 1.41E−3 S^−1, the “Kon” value was found to be 23900 M⁻¹ s⁻¹ and the Rmax turned out to be 0.69.
